# Results published in the supplement of paper PMC10724198.
# ± gives the standard deviation of the averaged measurements.
# Tested on: Saccharomyces cerevisiae
# Experiment: protein stability index of tFT-peptide fusion (C-terminal peptide) (PSI (0-1 scale)); higher = more stable (slower turnover)
# Conditions: genetic background: wild type; temperature: 30 C
# 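Further: PSI is a weighted mean of sequencing reads over stability bins, variants kept only with over 10 reads, mCherry proximal and sfGFP distal, peptide attached via GGGS linker.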
row,Sequence,protein stability index
1,PPPLTSPPHPPP,0.724 ± 0.029
2,PPPPAPPPAPPP,0.558 ± 0.019
3,PPPPAPYPNYYS,0.542 ± 0.0062
4,PPPPCPSYLPPS,0.693 ± 0.046
5,PPPPFAAALSTP,0.69 ± 0.039
6,PPPPFLCSPFVA,0.6905 ± 0.00081
7,PPPPGLPSSPPP,0.625 ± 0.051
8,PPPPHAPSASPP,0.668 ± 0.022
9,PPPPHSFTPSGH,0.673 ± 0.12
10,PPPPLPASHPSP,0.707 ± 0.044
11,PPPPLPHPALPP,0.675 ± 0.04
12,PPPPLPPLPGTL,0.657 ± 0.045
13,PPPPLPPPPVLT,0.7 ± 0.051
14,PPPPLPPPSPPL,0.7319 ± 0.0043
15,PPPPPAPPPLCY,0.663 ± 0.045
16,PPPPPHHRPPSS,0.709 ± 0.077
17,PPPPPHLPPLTP,0.711 ± 0.054
18,PPPPPHPRSPLS,0.738 ± 0.037
19,PPPPPHPTSPFP,0.751 ± 0.048
20,PPPPPHVHPPSP,0.689 ± 0.042
21,PPPPPLPALPLL,0.84 ± 0.081
22,PPPPPLPPPPPP,0.593 ± 0.021
23,PPPPPLSLLLPP,0.703 ± 0.032

row,Sequence,protein stability index
1,PPPPPNPIPPTF,0.713 ± 0.028
2,PPPPPPLLPPPA,0.7302 ± 0.0037
3,PPPPPPLPAPPH,0.693 ± 0.029
4,PPPPPPPFCLAP,0.718 ± 0.0079
5,PPPPPPPHSSLS,0.709 ± 0.0078
6,PPPPPPPLAPPL,0.685 ± 0.021
7,PPPPPPPLPHPP,0.595 ± 0.058
8,PPPPPPPLRFIF,0.618 ± 0.035
9,PPPPPPPPFSHS,0.712 ± 0.022
10,PPPPPPPPLPAP,0.664 ± 0.018
11,PPPPPPPPPLLP,0.7031 ± 0.006
12,PPPPPPPPPSTP,0.744 ± 0.016
13,PPPPPPPPRRPP,0.595 ± 0.047
14,PPPPPPPRGPPR,0.627 ± 0.014
15,PPPPPPPRPLTP,0.68 ± 0.059
16,PPPPPPPSPPFS,0.783 ± 0.031
17,PPPPPPPSSPPP,0.732 ± 0.012
18,PPPPPPQTPRPR,0.683 ± 0.061
19,PPPPPPSPLPPY,0.703 ± 0.01
20,PPPPPPSPPRLP,0.592 ± 0.03
21,PPPPPPTPPSLS,0.7449 ± 0.001
22,PPPPPRPRSLLS,0.711 ± 0.063
23,PPPPPSSRPLSN,0.627 ± 0.079

row,Sequence,protein stability index
1,PPPPPTPPPARP,0.695 ± 0.054
2,PPPPPVLPNRIP,0.781 ± 0.04
3,PPPPQPTAPPNP,0.717 ± 0.049
4,PPPPSLLPLSLP,0.608 ± 0.02
5,PPPPSPPLTRSL,0.783 ± 0.08
6,PPPPTLPPPPLS,0.722 ± 0.14
7,PPPPTTATRQQT,0.691 ± 0.016
8,PPPQLRPLPQSL,0.704 ± 0.018
9,PPPQYILPPRFP,0.691 ± 0.017
10,PPPRPCRAPAAA,0.668 ± 0.089
11,PPPRPGLPAPVP,0.683 ± 0.05
12,PPPRPLPVLFLP,0.611 ± 0.06
13,PPPRPPHAPFSL,0.702 ± 0.039
14,PPPRPPHGPLPY,0.658 ± 0.037
15,PPPRPPPPSCPP,0.685 ± 0.092
16,PPPRPPRPPLPS,0.727 ± 0.02
17,PPPRPTPAPPRV,0.65 ± 0.032
18,PPPRSPLFSLPP,0.678 ± 0.032
19,PPPSALPPLPQP,0.712 ± 0.01
20,PPPSCPPPPSRS,0.7754 ± 0.0068
21,PPPSHSLPSLPI,0.626 ± 0.033
22,PPPSLPPLPSPS,0.725 ± 0.027
23,PPPSLPPPSATA,0.689 ± 0.087

row,Sequence,protein stability index
1,PPPSLSPAPAPP,0.736 ± 0.027
2,PPPSPCHPPSPP,0.67 ± 0.12
3,PPPSPPDCLPLP,0.649 ± 0.086
4,PPPSPPLPRHLA,0.746 ± 0.06
5,PPPSPPSVPRAS,0.643 ± 0.027
6,PPPSRPPQLHPA,0.605 ± 0.021
7,PPPSSPPTHLTS,0.678 ± 0.012
8,PPPSSPTPPHSR,0.738 ± 0.082
9,PPPSTRSNPGLD,0.745 ± 0.028
10,PPPSVPPSLTPP,0.693 ± 0.03
11,PPPTHPTSTSSI,0.699 ± 0.02
12,PPPTLPPPSPFP,0.705 ± 0.038
13,PPPTPKITPMSI,0.6871 ± 0.0018
14,PPPTPPSRILPA,0.699 ± 0.016
15,PPPTPRPAFLPP,0.6969 ± 0.0037
16,PPPTPSDPQNSS,0.644 ± 0.007
17,PPPWSFPCPSAS,0.778 ± 0.084
18,PPPYPRSTPFVP,0.6774 ± 0.005
19,PPQALPHSSKQA,0.6931 ± 0.0025
20,PPRLHAPPPSPP,0.716 ± 0.016
21,PPRPLLPTPSPL,0.7 ± 0.056
22,PPRPLPARRLSF,0.753 ± 0.081
23,PPRPLPPPPPPT,0.716 ± 0.017

row,Sequence,protein stability index
1,PPRPPPSPPLPP,0.696 ± 0.062
2,PPRPPSPPPPSP,0.632 ± 0.02
3,PPRPRPPSSPST,0.641 ± 0.0099
4,PPRPSPPPLPPS,0.683 ± 0.051
5,PPRRAPPPIRLP,0.746 ± 0.074
6,PPRSFLPPRFSW,0.702 ± 0.066
7,PPRSFPGTPLIA,0.67 ± 0.069
8,PPRSLPPPTSPL,0.731 ± 0.011
9,PPRTPFSLPPPA,0.73 ± 0.054
10,PPRTSPRLLPPP,0.686 ± 0.0069
11,PPRVFGFFPFPP,0.774 ± 0.079
12,PPSAPLPTLLHH,0.722 ± 0.094
13,PPSAPPLPPLPL,0.69 ± 0.014
14,PPSFLLVCPRPP,0.6897 ± 0.0068
15,PPSHGRSSQSPR,0.731 ± 0.1
16,PPSLAPPPTSRP,0.679 ± 0.054
17,PPSLGPHSTSCD,0.715 ± 0.071
18,PPSLPPLPPSPA,0.656 ± 0.085
19,PPSLTPAALPAA,0.745 ± 0.072
20,PPSPASASPDRR,0.695 ± 0.022
21,PPSPELALSLGH,0.673 ± 0.038
22,PPSPHPSLPPPR,0.668 ± 0.024
23,PPSPLQGRICFV,0.698 ± 0.032

row,Sequence,protein stability index
1,PPSPLSTLPSPH,0.679 ± 0.045
2,PPSPPPAFPPPA,0.64 ± 0.059
3,PPSPPPPPAAST,0.768 ± 0.13
4,PPSPPSLRSSPP,0.744 ± 0.13
5,PPSPPVPRFSLL,0.69503 ± 0.00011
6,PPSPPVRPPLLA,0.617 ± 0.14
7,PPSPSPPPYHFP,0.676 ± 0.023
8,PPSPSSLPPPPL,0.733 ± 0.0075
9,PPSPTPPLPSCP,0.702 ± 0.029
10,PPSRDRSGCISV,0.709 ± 0.021
11,PPSRDSHPPPPP,0.627 ± 0.02
12,PPSRLLFPSPPA,0.683 ± 0.055
13,PPSRLSPPPPPS,0.71 ± 0.016
14,PPSRPLPALPFP,0.676 ± 0.097
15,PPSRPLPSPLPP,0.631 ± 0.03
16,PPSRPPAPSPRS,0.695 ± 0.037
17,PPSRPPPARREP,0.7 ± 0.022
18,PPSRPSASFALL,0.743 ± 0.026
19,PPSSYGCGRQMP,0.645 ± 0.038
20,PPTAPCPPPLPP,0.645 ± 0.012
21,PPTFFQRSPLRP,0.681 ± 0.033
22,PPTFLPLPSSPP,0.651 ± 0.079
23,PPTHPPLPPPLL,0.689 ± 0.07

row,Sequence,protein stability index
1,PPTPPPNPPSRY,0.715 ± 0.021
2,PPTPPPPRSTPS,0.766 ± 0.035
3,PPTPPPVPPPWS,0.669 ± 0.044
4,PPTPPTARPIVL,0.677 ± 0.018
5,PPTRLPQGVSWR,0.702 ± 0.066
6,PPVLSLGPPFTS,0.73 ± 0.11
7,PPYFFPSDPRPD,0.748 ± 0.067
8,PQIVRSFLLFPP,0.69 ± 0.0076
9,PQPPTPLTPTPP,0.697 ± 0.089
10,PQSIHASIYFRL,0.634 ± 0.02
11,PQTYHRPPPPLH,0.702 ± 0.028
12,PQYLALLRTSIP,0.739 ± 0.043
13,PRALCPPPSPST,0.697 ± 0.043
14,PRAPRVSTRRPE,0.793 ± 0.083
15,PRASPPPLPPSP,0.717 ± 0.032
16,PRCSVYPITGPY,0.682 ± 0.046
17,PRFLGWGGCLWV,0.7265 ± 0.0045
18,PRGGLGTGWGRR,0.731 ± 0.079
19,PRGILLATPEGH,0.684 ± 0.021
20,PRHCYIPLPLLP,0.661 ± 0.021
21,PRHISIHPNATP,0.705 ± 0.045
22,PRLLPFPPPLDH,0.735 ± 0.083
